Ends that are not written are not given here.
Tests used:
[1] = molecular target: T1, ErbB-4 receptor-Ig fusion (human, UniProt Q15303 26-651); assay: phage ELISA; ratio to wild-type HRG-β1 177-244 phage
T1 construct: extracellular domain;range 224-C-terminus; also called ErbB-4-Ig; not shown: human IgG heavy chain constant region from His224 (hinge) on
T1 sequence: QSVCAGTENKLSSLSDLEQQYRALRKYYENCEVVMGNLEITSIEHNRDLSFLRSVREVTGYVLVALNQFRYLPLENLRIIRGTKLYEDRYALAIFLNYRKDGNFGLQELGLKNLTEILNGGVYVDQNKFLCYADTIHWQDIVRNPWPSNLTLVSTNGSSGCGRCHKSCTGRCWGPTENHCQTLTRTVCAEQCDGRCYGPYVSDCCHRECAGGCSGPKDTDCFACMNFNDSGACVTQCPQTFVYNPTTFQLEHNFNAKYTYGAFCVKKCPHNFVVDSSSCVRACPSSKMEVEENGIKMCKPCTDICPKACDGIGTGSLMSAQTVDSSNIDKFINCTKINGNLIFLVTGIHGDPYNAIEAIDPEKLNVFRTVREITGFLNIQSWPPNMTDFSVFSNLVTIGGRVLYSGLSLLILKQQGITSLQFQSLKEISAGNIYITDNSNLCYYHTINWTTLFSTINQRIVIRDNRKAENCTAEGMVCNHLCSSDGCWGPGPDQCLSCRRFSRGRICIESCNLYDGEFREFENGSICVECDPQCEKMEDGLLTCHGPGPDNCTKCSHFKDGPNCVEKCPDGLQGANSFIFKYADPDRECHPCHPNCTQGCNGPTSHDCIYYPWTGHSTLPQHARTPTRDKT

[2] = molecular target: T2, ErbB-3 receptor-Ig fusion (human, UniProt P21860 20-643); assay: as above
T2 construct: extracellular domain;range 224-C-terminus; also called ErbB-3-Ig; 3/3 homodimer; not shown: human IgG heavy chain constant region from His224 (hinge) on
T2 sequence (P21860 other isoform, or with tags, fused parts or gaps): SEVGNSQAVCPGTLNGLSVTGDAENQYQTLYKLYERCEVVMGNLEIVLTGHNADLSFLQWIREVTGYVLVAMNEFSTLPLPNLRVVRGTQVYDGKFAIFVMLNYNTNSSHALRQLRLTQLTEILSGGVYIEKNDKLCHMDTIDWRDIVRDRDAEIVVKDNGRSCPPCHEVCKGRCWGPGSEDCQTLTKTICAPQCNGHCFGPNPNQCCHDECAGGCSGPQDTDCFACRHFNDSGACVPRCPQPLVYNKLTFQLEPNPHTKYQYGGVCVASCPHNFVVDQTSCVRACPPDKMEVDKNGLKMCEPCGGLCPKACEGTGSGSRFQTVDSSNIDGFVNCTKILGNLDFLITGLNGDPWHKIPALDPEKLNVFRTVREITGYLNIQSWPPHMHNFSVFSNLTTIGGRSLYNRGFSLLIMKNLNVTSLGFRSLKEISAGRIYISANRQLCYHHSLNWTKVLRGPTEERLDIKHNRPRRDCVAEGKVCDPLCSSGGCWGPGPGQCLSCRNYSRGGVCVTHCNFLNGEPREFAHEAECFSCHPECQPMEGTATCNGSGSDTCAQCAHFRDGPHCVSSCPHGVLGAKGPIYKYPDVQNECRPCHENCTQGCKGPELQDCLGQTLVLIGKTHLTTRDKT

[3] = molecular target: T2, ErbB-3 receptor-Ig fusion; assay: phage ELISA; soluble ErbB-3-Ig as competitor
[4] = molecular target: T1, ErbB-4 receptor-Ig fusion; assay: phage ELISA; soluble ErbB-4-Ig as competitor
[5] = molecular target: T3, ErbB-2/3 receptor-Ig fusion (human, UniProt P04626 23-652; P21860 20-643); assay: phage ELISA; soluble ErbB-2/3-Ig competes phage off plate-bound ErbB-2/3-Ig
T3 construct: extracellular domain;range 224-C-terminus; Co-expressed in HEK-293; also called ErbB-2/3-Ig; 2/3-heterodimer; not shown: human IgG heavy chain constant region from His224 (hinge) on

[6] = molecular target: T1, ErbB-4 receptor-Ig fusion; assay: displacement of 125I-HRG from plate-bound ErbB-4-Ig
Excerpt: For the ErbB-4 binding assays, PBS containing 1% BSA was used as the blocking and binding buffers, and the wash buffer was PBS containing 0.05% Tween 20™.

[7] = molecular target: T1, ErbB-4 receptor-Ig fusion; assay: phage ELISA; soluble ErbB-4-Ig as competitor; remark: listed apart in the source
Description: (§1) Microtiter plates (Nunc Maxisorp™ 96-well plates, Inter Med, Denmark) for phage ELISA were prepared as follows. The wells were precoated overnight with 0.5 μg of rabbit anti-human IgG (Fc gamma fragment-specific) antibodies (Jackson Immunoresearch, West Grove, Pa.) in 100 μL 50 mM NaCO₃ (pH 9.6). The wells were blocked for 30 minutes (min) with 200 μL PBS containing 0.1% bovine serum albumin (BSA) and rinsed with wash buffer (PBS containing 0.05% Tween 20™). The wells were then coated with 0.1 μg ErbB-2/3-Ig in binding buffer (PBS, 0.1% BSA, 0.05% Tween 20™) for 1 h, and washed again.
(§2) Serial dilutions of soluble ErbB-2/3-Ig (competitor) and a concentration of phage predetermined to give 60% saturation (without competitor) were added to the wells in 100 μL binding buffer. Following incubation for 2 h at room temperature, plates were washed extensively and treated with a 1:900 dilution of anti-M13 horseradish peroxidase conjugate (Pharmacia, Piscataway, N.J.) for 20 min. The amount of phage binding was determined by assaying horseradish peroxidase activity using o-phenylenediamine dihydrochloride) substrate solution (Sigma Chemical Company, St. Louis, Mo.). EC₅₀ values were calculated as the concentration of soluble ErbB-2/3-Ig required to compete half of the phage off the plate.

[8] = molecular target: T2, ErbB-3 receptor-Ig fusion; assay: phage ELISA; soluble ErbB-3-Ig as competitor; remark: listed apart in the source
Description: as §1, §2

[9] = molecular target: T2, ErbB-3 receptor-Ig fusion; assay: phage ELISA; soluble ErbB-3-Ig as competitor; remark: listed apart in the source
Description: as §1
(§3) Serial dilutions of soluble ErbB-2/3-Ig (competitor) and a concentration of phage predetermined to give 60% saturation (without competitor) were added to the wells in 100 μL binding buffer. Following incubation for 2 h at room temperature, plates were washed extensively and treated with a 1:900 dilution of anti-M13 horseradish peroxidase conjugate (Pharmacia, Piscataway, N.J.) for 20 min. The amount of phage binding was determined by assaying horseradish peroxidase activity using o-phenylenediamine dihydrochloride) substrate solution (Sigma Chemical Company, St. Louis, Mo.). EC₅₀ values were calculated as the concentration of soluble ErbB-2/3-Ig required to compete half of the phage off the plate. […]

[10] = molecular target: T1, ErbB-4 receptor-Ig fusion; assay: phage ELISA; soluble ErbB-4-Ig as competitor; remark: listed apart in the source
Description: as §1, §3

[11] = molecular target: T2, ErbB-3 receptor-Ig fusion; assay: displacement of 125I-HRG from plate-bound ErbB-3-Ig
[12] = molecular target: T3, ErbB-2/3 receptor-Ig fusion; assay: told with the 125I-HRG displacement assay; reference ErbB-3-Ig homodimer
[13] = molecular target: T3, ErbB-2/3 receptor-Ig fusion; assay: displacement of 125I-HRG from plate-bound ErbB-2/3-Ig
[14] = molecular target: ErbB-2/3 heterodimers on MCF7 breast cancer carcinoma cells (UniProt P04626 23-1255; P21860 20-1342, limits assumed); assay: cell-based or functional assay

HRG-β1 177-244 H178W with 228-231 replaced by Met, on phage (from UniProt P69168 265-424) (ligand)
EC50 Mut/WT [1]: 1.7 | EC50 Mut/WT [2]: 1.2

HRG-β1 177-244 F216A on phage (from UniProt P69168 265-424) (ligand)
EC50 [3]: 500 nM

HRG-β1 177-244 H178L with 228-231 replaced by Met, on phage (from UniProt P69168 265-424) (ligand)
EC50 Mut/WT [1]: 1.7 | EC50 Mut/WT [2]: 6.4

HRG-β1 177-244 F189A on phage (from UniProt P69168 265-424) (ligand)
EC50 [3]: 892 nM | EC50 [4]: 106 nM

B1: HRG11: HRG-β1 177-230 displayed on phage, GGGSGGG linker to pIII 247 (ligand, phage M13)
chain: SHLVKCAEKEKTFCVNGGECFMVKDLSNPSRYLCKCPNEFTGDRCQNYVMASFYGGGSGGGGGSGGGSGSGDFDYEKMANANKGAMTENADENALQSDAKGKLDSVATDYGAAIDGFIGDVSGLANGNGATGDFAGSNSQMAQVGDGDNSPLMNNFRQYLPSLPQSVECRPFVFSAGKPYEFSIDCDKINLFRGVFAFLLYVATFMYVFSTFANILRNKES
notes: range 247-C-terminus; Monovalent phage display; also called pHRG11-g3
EC50 [5]: 19 nM

SHLVKCAEKEKTFCVNGGECFMVKDYGYLMCKCPNEFTGDRCQNYVMAS (ligand, also: three disulfide bonds, pairing not given here) [soluble HRG-β1 EGF variant E2]
EC50 [6]: 2.4 nM

SHLVKCAEKEKTFCVNGGECYRVKTYGYLMCKCPNEFTGDRCQNYVIAS (ligand, also: three disulfide bonds, pairing not given here, also called D4+E2+M50I) [soluble HRG-β1 EGF combination variant HRG58]
EC50 [6]: 0.3 nM

B2: HRG2: HRG-β1 177-244 displayed on phage, fused to pIII 247 (ligand, phage M13)
chain: SHLVKCAEKEKTFCVNGGECFMVKDLSNPSRYLCKCPNEFTGDRCQNYVMASFYKHLGIEFMEAEELYGGSGGGSGSGDFDYEKMANANKGAMTENADENALQSDAKGKLDSVATDYGAAIDGFIGDVSGLANGNGATGDFAGSNSQMAQVGDGDNSPLMNNFRQYLPSLPQSVECRPFVFSAGKPYEFSIDCDKINLFRGVFAFLLYVATFMYVFSTFANILRNKES
notes: range 247-C-terminus; Monovalent phage display; also called pHRG2-g3
EC50 [5]: 6 nM | EC50 [7]: 19 nM | EC50 [8]: 13 nM

SHLVKCGEEREGFCVNGGECYRVKTYGYLMCKCPNEFTGDRCQHYVIAS (ligand, also: three disulfide bonds, pairing not given here, also called B3+D4+E2+I2) [soluble HRG-β1 EGF combination variant HRG73]
EC50 [6]: 0.31 nM

B3: HRG7: HRG-β1 177-228 displayed on phage, fused to pIII 247 (ligand, phage M13)
chain: SHLVKCAEKEKTFCVNGGECFMVKDLSNPSRYLCKCPNEFTGDRCQNYVMASGGSGGGSGSGDFDYEKMANANKGAMTENADENALQSDAKGKLDSVATDYGAAIDGFIGDVSGLANGNGATGDFAGSNSQMAQVGDGDNSPLMNNFRQYLPSLPQSVECRPFVFSAGKPYEFSIDCDKINLFRGVFAFLLYVATFMYVFSTFANILRNKES
notes: range 247-C-terminus
EC50 [5]: 42 nM

B4: HRG8: wild-type HRG-β1 EGF (HRG-β1 177-228) displayed on phage, linker to pIII 323 (ligand, phage M13)
chain: SHLVKCAEKEKTFCVNGGECFMVKDLSNPSRYLCKCPNEFTGDRCQNYVMASGGGSGGGSGGGSNSQMAQVGDGDNSPLMNNFRQYLPSLPQSVECRPFVFSAGKPYEFSIDCDKINLFRGVFAFLLYVATFMYVFSTFANILRNKES
notes: range 323-C-terminus; Monovalent phage display; also called pHRG8-g3; wild-type HRG-β1 EGF phage
EC50 [5]: 11 nM | EC50 [9]: 135 nM | EC50 [10]: 163 nM

B5: soluble wild-type HRG-β1 EGF (HRG8, HRG-β1 177-228) (ligand)
chain: SHLVKCAEKEKTFCVNGGECFMVKDLSNPSRYLCKCPNEFTGDRCQNYVMAS
notes: also called HRG8 (WT)
EC50 [11]: 2.3 nM | fold higher affinity than for the 3/3 homodimer [12]: ~100 fold | EC50 [6]: 1.5 nM | EC50 [13]: 0.033 nM | KIRA EC50 (nM): tyrosine phosphorylation of the ErbB-2 receptor on MCF7 cells [14]: 0.212 nM

B6: soluble HRG-β1 EGF variant F1 (ligand)
chain: SHLVKCAEKEKTFCVNGGECFKVKDLSNPSRYLCKCPNEFTGDRCQNYVIAS
modifications: also: three disulfide bonds, pairing not given here
EC50 [11]: 0.6 nM | EC50 [6]: 0.26 nM

B7: soluble HRG-β1 EGF variant A3 (ligand)
chain: WELVPCAEKEKTFCVNGGECFMVKDLSNPSRYLCKCPNEFTGDRCQNYVMAS
modifications: also: three disulfide bonds, pairing not given here
EC50 [11]: 4.3 nM | EC50 [6]: 2.1 nM

B8: HRG6: HRG-β1 177-227 displayed on phage, fused to pIII 247 (ligand, phage M13)
chain: SHLVKCAEKEKTFCVNGGECFMVKDLSNPSRYLCKCPNEFTGDRCQNYVMAGGSGGGSGSGDFDYEKMANANKGAMTENADENALQSDAKGKLDSVATDYGAAIDGFIGDVSGLANGNGATGDFAGSNSQMAQVGDGDNSPLMNNFRQYLPSLPQSVECRPFVFSAGKPYEFSIDCDKINLFRGVFAFLLYVATFMYVFSTFANILRNKES
notes: range 247-C-terminus; also called pHRG6-g3
EC50 [5]: 40 nM
